Data as given in publication PMC3642127, “Distinguishable In Vitro Binding Mode of Monomeric TRBP and Dimeric PACT with siRNA” (PLoS ONE, 2013).
Positions count from the first letter of the chain named.

Key:
Settings in all cases: protein: recombinant; tags: N-His6;C-myc; label: 32P guide strand; 2 nt 3' overhangs
[1] = molecular target: T1, TRBP-ΔdsRBD3 (human, UniProt Q15633 1-292); assay: EMSA; complex 1; EMSA: 20 mM Tris pH 7.5, 150 mM NaCl, 2 mM EDTA, 1 mM 2-mercaptoethanol, 1 mM DTT, 50 ng/ul salmon sperm DNA, 0.4 U/ul RNasin, 0.5 nM 32P-siRNA, 30 min on ice
T1 sequence: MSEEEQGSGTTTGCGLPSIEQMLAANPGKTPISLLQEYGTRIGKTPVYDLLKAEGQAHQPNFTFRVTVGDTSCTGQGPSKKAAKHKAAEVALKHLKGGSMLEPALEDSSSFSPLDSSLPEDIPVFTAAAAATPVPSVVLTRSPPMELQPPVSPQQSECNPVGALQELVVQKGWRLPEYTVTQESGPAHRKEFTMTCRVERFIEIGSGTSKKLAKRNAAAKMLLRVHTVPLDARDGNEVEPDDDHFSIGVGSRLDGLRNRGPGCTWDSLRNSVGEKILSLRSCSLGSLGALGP

[2] = molecular target: T2, TRBP-dsRBDmt1+2 (human, UniProt Q15633 1-366, K80A;K81A;K210A;K211A); assay: EMSA; virtually no binding; Kd ND; EMSA: 20 mM Tris pH 7.5, 150 mM NaCl, 2 mM EDTA, 1 mM 2-mercaptoethanol, 1 mM DTT, 50 ng/ul salmon sperm DNA, 0.4 U/ul RNasin, 0.5 nM 32P-siRNA, 30 min on ice
T2 sequence: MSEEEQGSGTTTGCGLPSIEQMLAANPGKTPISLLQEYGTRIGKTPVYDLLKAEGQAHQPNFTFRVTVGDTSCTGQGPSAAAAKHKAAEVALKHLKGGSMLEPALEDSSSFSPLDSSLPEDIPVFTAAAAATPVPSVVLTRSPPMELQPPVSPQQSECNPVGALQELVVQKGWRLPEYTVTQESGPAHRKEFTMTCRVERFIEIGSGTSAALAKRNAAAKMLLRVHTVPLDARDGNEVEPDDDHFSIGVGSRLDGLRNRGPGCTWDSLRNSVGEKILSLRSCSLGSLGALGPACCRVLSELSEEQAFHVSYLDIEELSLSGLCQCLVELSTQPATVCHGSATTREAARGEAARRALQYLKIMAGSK

[3] = molecular target: T3, TRBP-WT (human, UniProt Q15633 1-366); assay: EMSA; complex 1 (monomer); EMSA: 20 mM Tris pH 7.5, 150 mM NaCl, 2 mM EDTA, 1 mM 2-mercaptoethanol, 1 mM DTT, 50 ng/ul salmon sperm DNA, 0.4 U/ul RNasin, 0.5 nM 32P-siRNA, 30 min on ice
T3 sequence: T2 sequence with A80K, A81K, A210K, A211K

[4] = molecular target: T4, TRBP-dsRBDmt1 (human, UniProt Q15633 1-366, K80A;K81A); assay: EMSA; single-step complex; EMSA: 20 mM Tris pH 7.5, 150 mM NaCl, 2 mM EDTA, 1 mM 2-mercaptoethanol, 1 mM DTT, 50 ng/ul salmon sperm DNA, 0.4 U/ul RNasin, 0.5 nM 32P-siRNA, 30 min on ice
T4 sequence: T2 sequence with A210K, A211K

[5] = molecular target: T5, TRBP-dsRBDmt2 (human, UniProt Q15633 1-366, K210A;K211A); assay: as above
T5 sequence: T2 sequence with A80K, A81K

B1: siLuc2-153 (dsRNA)
RNA 1: UCGAAGUAUUCCGCGUACGUG
RNA 2: CGUACGCGGAAUACUUCGAUU
Kd [1]: 12 nM | binding result [2]: no binding | Kd [3]: 4 nM | Kd [4]: 260 nM | Kd [5]: 520 nM
